Measured values taken from publication PMC6600642.

Assays:
[1] = target: microtubules (polymerized from unlabeled tubulin, Taxol-stabilised)
[2] = target: microtubules (polymerized from unlabeled tubulin, Taxol-stabilised); remark: listed apart in the source

Sequence of microtubules (polymerized from unlabeled tubulin, Taxol-stabilised) (chain, as listed by the source, chain 1 of 2): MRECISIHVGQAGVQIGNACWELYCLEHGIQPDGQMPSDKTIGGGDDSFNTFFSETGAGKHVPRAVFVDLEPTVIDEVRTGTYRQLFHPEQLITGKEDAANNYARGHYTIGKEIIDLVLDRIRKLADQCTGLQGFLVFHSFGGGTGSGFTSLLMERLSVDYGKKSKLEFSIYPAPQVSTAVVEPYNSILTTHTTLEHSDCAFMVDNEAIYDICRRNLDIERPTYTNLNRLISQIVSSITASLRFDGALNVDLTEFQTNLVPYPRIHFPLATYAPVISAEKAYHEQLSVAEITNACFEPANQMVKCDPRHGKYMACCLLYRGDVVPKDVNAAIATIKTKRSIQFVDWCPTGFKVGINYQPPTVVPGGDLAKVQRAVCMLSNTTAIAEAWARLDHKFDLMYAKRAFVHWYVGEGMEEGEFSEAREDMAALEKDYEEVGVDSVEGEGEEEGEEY
Sequence of microtubules (polymerized from unlabeled tubulin, Taxol-stabilised) (chain, as listed by the source, chain 2 of 2): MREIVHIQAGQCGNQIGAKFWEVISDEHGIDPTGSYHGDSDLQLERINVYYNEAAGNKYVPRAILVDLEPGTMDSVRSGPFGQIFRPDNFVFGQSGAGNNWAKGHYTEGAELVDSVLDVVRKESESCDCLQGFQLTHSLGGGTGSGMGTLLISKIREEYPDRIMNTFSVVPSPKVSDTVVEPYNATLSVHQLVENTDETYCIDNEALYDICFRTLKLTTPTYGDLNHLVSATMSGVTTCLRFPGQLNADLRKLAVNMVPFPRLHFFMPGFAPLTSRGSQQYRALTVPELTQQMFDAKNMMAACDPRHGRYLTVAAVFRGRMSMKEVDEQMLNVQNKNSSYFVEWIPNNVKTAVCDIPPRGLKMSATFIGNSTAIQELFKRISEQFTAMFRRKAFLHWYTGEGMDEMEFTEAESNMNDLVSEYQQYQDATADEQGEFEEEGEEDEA

microtubule-stimulated ATPase activity of monomeric dynein (second series, beside mutant 14): [MT] K M [1]: 0.42 µM
microtubule-stimulated ATPase activity of monomeric dynein, 0–5 μM microtubules: K M for tubulin dimer [2]: 0.5 µM
Substance: Saccharomyces cerevisiae cytoplasmic dynein (Dyn1) 1219-4093, monomeric construct, wild-type, P36022 1219-4092
